According to patent publication US6884600B1, “Protein phosphatase-1 catalytic subunit interactions” (Medical Research Council London, priority 1996, dated 2005):
Where two headings read alike, the source gives them in different places.

What was measured:
[1] = system: PP1GL; assay: Phosphorylase phosphatase activity of PP1GL (hepatic glycogen particles); type: biochemical, rat; settings: hepatic glycogen particles containing PP1-GL
Description: Hepatic glycogen particles were diluted in assay buffer to 0.6 phosphorylase phosphatase (PhP) mU per ml, incubated for 15 minutes at 30° C. with GM-(G63-T93) (closed circles), GM-(G63-K80) (open circles) or GM-(G63-N75) (closed triangles) and assayed as described in Example 1. The open triangles show the effect of GM-(G63-N75) which had been phosphorylated at Ser67 by PKA (pGM-(G63-N75)). Similar results were obtained in four experiments.
(A) Hepatic glycogen protein particles containing PP1-GL were diluted and incubated for 15 min at 30° C. with the indicated concentrations of either M110[M1-F38] (open circles) or M110[M1-K35] (closed circles) and the phosphatase reactions were initiated by addition of ^32P-labelled glycogen phosphorylase. The results are expressed as a percentage of the activity determined in control incubations where the M110 peptides were omitted. Similar results were obtained in three separate experiments. (B) The experiment was carried out as in (A), except that the peptide GM[G63-N75] (“wild type”, WT) and variants in which either Val 66 (V66A) (closed triangles) or Phe 68 (F68A) (closed circles) were changed to Ala, were used instead of the M110 peptides. Similar results were obtained in three separate experiments.
The myosin-associated form of PP1 (PP1M) was from chicken gizzard and the glycogen-associated form of PP1 (PP1G) from rabbit skeletal muscle. […]

[2] = molecular target: T1, PP1c (Oryctolagus cuniculus, UniProt P62143); assay: Phosphorylase phosphatase activity of PP1c; type: biochemical, rabbit
T1 construct: from tissue; host or cells: rabbit skeletal muscle (PP1G dissociated with LiBr)
Description: (§1) A,B; Effects of M110-(M1-E309) (closed circles), M110-(M1-F38) (open circles) and M110-(D39-E309) (open triangles) on the MLC20 phosphatase […] and phosphorylase phosphatase (B) activities of PP1c were measured after incubating PP1c for 15 minutes at 30° C. with each fragment. The results are presented as a percentage of those obtained in experiments where the M110 fragments were omitted.
(§2) C,D; The effect of M110-(M1-A150) (open circles) and M110-(L24-Y496) (closed circles) on the MLC20 phosphatase (C) and phosphorylase phosphatase (D) activities of PP1c were measured as in A,B.
(B) The phosphorylase phosphatase activity of PP1c was assayed as in A in the presence or absence of 1 μM GM-(G63-T93) and 1.0 nM M110-(M1-E309). The results are presented (SEM for three experiments) as a percentage of the PP1c activity measured in the absence of GM-(63-T93), M110-(M1-F38) or M110-(M1-E309).
(§3) The myosin-associated form of PP1 (PP1M) was from chicken gizzard and the glycogen-associated form of PP1 (PP1G) from rabbit skeletal muscle. The β isoform of PP1c was released from PP1G by incubation for 2 hours in 2M LiBr, then purified by gel-filtration on a 30×1 cm column of Superose 12 (Pharmacia, Milton Keynes, U.K.) in the presence of 0.5M LiBr. Glycogen protein particles from rat liver were used as the source of hepatic PP1G Digoxygenin-labelled PP1c (γ1-isoform, hereafter termed PP1) was prepared as in [9]. GL was expressed in E. coli as a glutathione-S-transferase (GST) fusion protein [7], termed GST-GL. The catalytic subunit of PP2A from bovine heart (PP2AC) was provided by Dr R. MacKintosh in this Unit. The phosphorylatable myosin light chain (MLC20) and heavy meromyosin from chicken gizzard were a gift from Dr M. Ikebe (Case Western Reserve University, Cleveland, USA). Thrombin and benzamidine-Agarose were purchased from Sigma (Poole, UK).
(§4) ^32P-labelled rabbit skeletal muscle phosphorylase a (containing 1.0 mol phosphate per mol subunit) was prepared by phosphorylation with phosphorylase kinase, ^32P-labelled rabbit skeletal muscle glycogen synthase (containing 1.5 mol/mol subunit in the sites 3 region) was prepared by phosphorylation with glycogen synthase kinase-3 [24]). ^32P-labelled chicken gizzard MLC20 and ^32P-labelled chicken gizzard heavy meromyosin (containing 1.0 mol phosphate per mol subunit) were prepared by phosphorylation with smooth muscle myosin light chain kinase. The dephosphorylation of phosphorylase a (10 μM), glycogen synthase (1 μM) and MLC20 (1 μM) and heavy meromyosin (1 μM) was carried out as in [24]. One unit of activity (U) was that amount which released […] of phosphate in one minute.
(§5) PP1c was isolated from the rabbit skeletal muscle PP1-GM complex as described previously (Johnson et al, 1996). Glycogen particles isolated from rat liver (Schelling el al, 1988) served as the source of PP1-GL. The dephosphorylation of glycogen phosphorylase (10 μM) and the isolated MLC20 of smooth muscle myosin (1 μM) by PP1c was carried out as described previously (Cohen et al., 1988; Alessi et al., 1992).

[3] = molecular target: T1, PP1c; assay: MLC20 (myosin P-light chain) phosphatase activity of PP1c; type: biochemical
Description: as §1, §2
(A) The MLC20 phosphatase activity of PP1c was assayed after incubation for 15 minutes at 30° C. in the presence or absence of 1 μM GM-(G63-T93) and either 0.1 μM M110-(M1-F38) or 0.1 nM M110-(M1-E309).
(1-38, open circles) or M110[M1-K35] (1-35, closed circles) were incubated with PP1c for 15 min at 30° C. and reactions started with the ^32P-labelled MLC20 substrate. The results are expressed as a % of the activity determined in control incubations where the M110 peptides were omitted (100%). Similar results were obtained in three separate experiments.
as §3, §4, §5
^32P-labelled myosin P-light chains containing 1.0 mol phosphate per mol subunit was prepared by phosphorylation with smooth muscle myosin light chain kinase. The dephosphorylation of myosin P-light chain (1 μM) was carried out as in [4] and one unit of activity (U) was that amount which catalysed the release of 1 μmole of phosphate in one min. When assaying PP1M in immunoprecipitates from the myofibrillar extracts, the tubes were shaken continuously and 3 nM okadaic acid was included to inhibit any PP2A present.

[4] = molecular target: PP1; settings: Beullens et al., 1992; read-out: inhibitory constant for PP1; cited from earlier work

T1 sequence (P62143 whole entry): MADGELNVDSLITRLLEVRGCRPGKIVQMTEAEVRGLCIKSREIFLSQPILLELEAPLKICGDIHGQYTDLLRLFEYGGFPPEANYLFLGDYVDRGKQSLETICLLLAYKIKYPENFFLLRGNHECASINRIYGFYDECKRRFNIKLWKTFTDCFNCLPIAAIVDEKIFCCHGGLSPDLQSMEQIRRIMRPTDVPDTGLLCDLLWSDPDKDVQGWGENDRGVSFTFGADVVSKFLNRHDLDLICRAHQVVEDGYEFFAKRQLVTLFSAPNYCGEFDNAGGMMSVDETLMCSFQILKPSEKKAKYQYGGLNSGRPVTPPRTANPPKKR

Molecule	effect on the phosphorylase phosphatase activity of PP1GL [1]	effect on the phosphorylase phosphatase activity of PP1c [2]	effect on the phosphorylase phosphatase activity of PP1c ([2]; each peptide individually, at concentrations up to 1 μM)	effect on the MLC20 phosphatase activity of PP1c [3]	Ki [4] [pM]
M110-(D39-E309): rat aorta M110 fragment, residues 39-309, containing the seven ankyrin repeats (protein, UniProt Q10728 39-309, looked up, fragment) DDGAVFLAACSSGDTDEVLKLLHRGADINYANVDGLTALHQACIDDNVDMVKFLVENGANINQPDNEGWIPLHAAASCGYLDIAEFLIGQGAHVGAVNSEGDTPLDIAEEEAMEELLQNEVNRQGVDIEAARKEEERIMLRDARQWLNSGHISDVRHAKSGGTALHVAAAKGYTEVLKLLIQAGYDVNIKDYDGWTPLHAAAHWGKEEACRILVDNLCDMETVNKVGQTAFDVADEDILGYLEELQKKQNLLHSEKRDKKSPLIESTANME	can enhance the phosphorylase activity of PP1GL	did not inhibit the phosphorylase phosphatase activity of PP1c	no effect	failed to stimulate the MLC20 phosphatase activity of PP1c	
NIPP-1: nuclear inhibitor of PP1 (protein, UniProt Q12972 1-351, looked up) Nuclear inhibitor of protein …: MAAAANSGSSLPLFDCPTWAGKPPPGLHLDVVKGDKLIEKLIIDEKKYYLFGRNPDLCDFTIDHQSCSRVHAALVYHKHLKRVFLIDLNSTHGTFLGHIRLEPHKPQQIPIDSTVSFGASTRAYTLREKPQTLPSAVKGDEKMGGEDDELKGLLGLPEEETELDNLTEFNTAHNKRISTLTIEEGNLDIQRPKRKRKNSRVTFSEDDEIINPEDVDPSVGRFRNMVQTAVVPVKKKRVEGPGSLGLEESGSRRMQNFAFSGGLYGGLPPTHSEAGSQPHGIHGTALIGGLPMPYPNLAPDVDLTPVVPSAVNMNPAPNPAVYNPEAVNEPKKKKYAKEAWPGKKPTPSLLI					1
